B1: scFv 37-20-B03-sc09.1 PRO2230 (scFv)
scFv: DIQMTQSPASLSASVGDRVTITCQASQSIGTYLAWYQQKPGKPPKLLIYRAFILASGVPSRFSGSGSGTDFTLTISSLQPEDFATYYCQSNFYSDSTTIGPNAFGTGTKVTVLGGGGGSGGGGSGGGGSGGGGSEVQLVESGGGLVQPGGSLRLSCAASGFSFNSDYWIYWVRQAPGKGLEWIASIYGGSSGNTQYASWAQGRFTISRDNSKNTVYLQMNSLRAEDTAVYFCARGYVDYGGATDLWGQGTLVTVSS
notes: also called PRO2330; PRO2230 wt
B2: scFv 54-21-H03-sc01 (PRO1922) (scFv)
scFv: DIQMTQSPSSLSASVGDRVTITCQASESIYSSLAWYQQKPGKAPKLLIYLASTLASGVPSRFSGSGSGTDFTLTISSLQPEDFATYYCQSTDYTTSTHRNSFGTGTKVTVLGGGGGSGGGGSGGGGSGGGGSEVQLVESGGGLVQPGGSLRLSCAASGFSFSTTYYMCWVRQAPGKGLEWIGCTNTASSVRTYYATWAKGRFTISRDNSKNTVYLQMNSLRAEDTAVYYCARDMGFADYALNLWGQGTLVTVSS
notes: also called PRO1992; PRO1922 wt

Tests used:
[1] = target: T1, human α-PD-L1 Fc (Sino Biological, 10084-H02H, LC11NO2402) (human, UniProt Q9NZQ7 19-239); assay: SPR, PD-L1 Fc immobilised, scFv as analyte, 1:1 Langmuir fit
T1 construct: also called Human PD-L1
T1 sequence (Q9NZQ7 19-239 limits assumed): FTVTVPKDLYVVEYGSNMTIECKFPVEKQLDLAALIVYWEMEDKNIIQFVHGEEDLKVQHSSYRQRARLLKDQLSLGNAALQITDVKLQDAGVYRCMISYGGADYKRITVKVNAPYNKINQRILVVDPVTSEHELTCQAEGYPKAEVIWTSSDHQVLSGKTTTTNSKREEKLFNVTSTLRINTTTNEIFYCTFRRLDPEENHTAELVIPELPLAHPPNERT

[2] = target: pre-existing anti-drug antibodies (ADAs) in human sera; assay: ELISA, scFv coated, 5% human serum unspiked/spiked, anti-human IgG-HRP
[3] = target: T2, human α-Mesothelin (Acro Biosystems; MSN_H5223) (human, UniProt Q13421 296-580, limits assumed); assay: SPR, MSLN immobilised, scFv as analyte, 1:1 Langmuir fit
T2 construct: also called Human MSLN; MSLN
T2 sequence (Q13421 other isoform, or with tags, fused parts or gaps limits assumed): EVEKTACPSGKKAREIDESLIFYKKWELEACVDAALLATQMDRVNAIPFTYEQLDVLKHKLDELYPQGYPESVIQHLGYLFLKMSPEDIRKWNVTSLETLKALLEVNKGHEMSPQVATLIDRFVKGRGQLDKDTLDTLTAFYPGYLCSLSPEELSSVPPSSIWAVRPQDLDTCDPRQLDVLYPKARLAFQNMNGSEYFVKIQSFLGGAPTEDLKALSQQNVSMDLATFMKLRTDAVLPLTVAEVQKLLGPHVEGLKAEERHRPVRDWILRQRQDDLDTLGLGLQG

Binder	Kd [1]	No of positive serum samples above 30 % CCP (positive sera of 20) [2]	No of screening positive serum samples above 30 % Inhibition (positive sera of 20) [2]	Kd [3]
B1	1.5 nM	6	18	
B2		10	16	1.8 nM

From patent EP4273162A1 (Numab Therapeutics AG, dated 2023)
